In patent US20250186594A1 (BRIGHT PEAK THERAPEUTICS, published 2025):
Positions count from the first letter of the chain named. Names may count otherwise.

T1: IL-18 receptor (IL-18R) on HEK-Blue IL18R reporter cells (UniProt Q13478 19-541; O95256 20-599, limits assumed)
T1 sequence (looked up) 1: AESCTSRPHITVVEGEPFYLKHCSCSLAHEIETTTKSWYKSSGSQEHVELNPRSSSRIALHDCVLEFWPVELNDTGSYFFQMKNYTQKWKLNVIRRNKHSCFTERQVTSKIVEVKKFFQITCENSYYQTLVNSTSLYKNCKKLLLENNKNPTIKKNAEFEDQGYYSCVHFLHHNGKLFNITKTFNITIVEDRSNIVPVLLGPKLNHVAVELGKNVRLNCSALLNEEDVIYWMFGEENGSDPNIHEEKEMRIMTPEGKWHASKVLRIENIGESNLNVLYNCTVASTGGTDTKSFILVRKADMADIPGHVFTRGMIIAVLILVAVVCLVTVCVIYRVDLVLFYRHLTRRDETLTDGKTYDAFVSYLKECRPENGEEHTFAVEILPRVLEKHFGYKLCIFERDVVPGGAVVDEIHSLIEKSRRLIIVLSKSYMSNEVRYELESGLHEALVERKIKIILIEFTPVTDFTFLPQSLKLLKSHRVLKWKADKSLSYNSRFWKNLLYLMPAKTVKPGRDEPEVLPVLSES
T1 sequence (looked up) 2: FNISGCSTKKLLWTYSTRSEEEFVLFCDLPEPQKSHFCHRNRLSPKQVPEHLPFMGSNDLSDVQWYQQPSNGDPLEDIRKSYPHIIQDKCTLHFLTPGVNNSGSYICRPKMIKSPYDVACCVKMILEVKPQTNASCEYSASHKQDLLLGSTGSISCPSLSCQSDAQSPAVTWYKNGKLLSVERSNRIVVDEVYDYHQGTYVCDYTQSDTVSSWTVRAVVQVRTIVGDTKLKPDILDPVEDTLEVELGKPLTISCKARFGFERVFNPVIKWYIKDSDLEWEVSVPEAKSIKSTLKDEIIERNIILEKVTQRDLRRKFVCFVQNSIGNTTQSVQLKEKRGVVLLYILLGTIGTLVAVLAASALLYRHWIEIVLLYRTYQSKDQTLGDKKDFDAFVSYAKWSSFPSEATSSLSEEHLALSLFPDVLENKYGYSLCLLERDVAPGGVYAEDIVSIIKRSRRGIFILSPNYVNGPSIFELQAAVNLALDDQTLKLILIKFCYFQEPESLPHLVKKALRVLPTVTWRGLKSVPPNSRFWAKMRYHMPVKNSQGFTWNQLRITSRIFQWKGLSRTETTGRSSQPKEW

T2: IL-18Rα/β heterodimer (Fc fused human IL-18Rα mixed with Fc fused human IL-18Rβ) (human, UniProt Q13478 19-329; O95256 20-356, limits assumed)
T2 construct: Alpha and beta Fc fusions were mixed and pre-incubated for 30 min before capture on anti-human IgG; also called alpha/beta heterodimer IL-18 receptor; heterodimeric human IL-18 receptor alpha (CD218a) and IL-18R accessory protein (IL-18RAP/CDw218b); not shown: Fc
T2 sequence (looked up) 1: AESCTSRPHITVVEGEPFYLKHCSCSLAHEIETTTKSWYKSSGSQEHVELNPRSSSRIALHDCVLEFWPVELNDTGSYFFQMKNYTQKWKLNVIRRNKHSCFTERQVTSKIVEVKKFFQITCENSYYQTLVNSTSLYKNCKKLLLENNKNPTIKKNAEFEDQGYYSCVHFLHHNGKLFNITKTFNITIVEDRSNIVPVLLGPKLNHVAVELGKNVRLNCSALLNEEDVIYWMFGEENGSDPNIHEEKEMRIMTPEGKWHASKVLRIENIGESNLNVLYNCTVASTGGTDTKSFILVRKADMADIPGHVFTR
T2 sequence (looked up) 2: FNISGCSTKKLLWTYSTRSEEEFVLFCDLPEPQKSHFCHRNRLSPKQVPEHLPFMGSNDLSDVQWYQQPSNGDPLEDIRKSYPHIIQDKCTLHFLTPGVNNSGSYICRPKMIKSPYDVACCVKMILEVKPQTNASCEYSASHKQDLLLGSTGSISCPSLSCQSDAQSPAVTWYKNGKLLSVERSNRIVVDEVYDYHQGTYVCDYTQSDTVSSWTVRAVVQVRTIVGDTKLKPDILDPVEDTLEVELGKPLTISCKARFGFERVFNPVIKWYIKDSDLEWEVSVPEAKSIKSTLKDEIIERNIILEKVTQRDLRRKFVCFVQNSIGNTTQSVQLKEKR

B1: IL-18 variant SEQ ID NO: 240 (E6R, V11I, C38A, K53A, T63A, C76A, C127A) (ligand)
chain: YFGKLRSKLSIIRNLNDQVLFIDQGNRPLFEDMTDSDARDNAPRTIFIISMYADSQPRGMAVAISVKCEKISTLSAENKIISFKEMNPPDNIKDTKSDIIFFQRSVPGHDNKMQFESSSYEGYFLAAEKERDLFKLILKKEDELGDRSIMFTVQNED
B2: IL-18 variant SEQ ID NO: 228 (V11I, C38A, C76A, S105I, C127A) (ligand)
chain: B1 chain with R6E, A53K, A63T, S105I
B3: IL-18 variant SEQ ID NO: 229 (V11I, C38A, C76A, S105K, C127A) (ligand)
chain: B1 chain with R6E, A53K, A63T, S105K
B4: IL-18 variant SEQ ID NO: 234 (E6K, V11I, C38A, K53A, T63A, C76A, Q103R, C127A) (ligand)
chain: B1 chain with R6K, Q103R
B5: IL-18 variant SEQ ID NO: 204 (V11I, C38A, K53A, C76A, C127A) (ligand)
chain: B1 chain with R6E, A63T
B6: IL-18 variant SEQ ID NO: 209 (F2A, V11I, C38A, K53A, C76A, C127A) (ligand)
chain: B1 chain with F2A, R6E, A63T
B7: IL-18 variant SEQ ID NO: 217 (V11I, C38A, N41A, K53A, C76A, C127A) (ligand)
chain: B1 chain with R6E, N41A, A63T
B8: IL-18 variant SEQ ID NO: 235 (E6K, K8E, V11I, C38A, K53A, T63A, C76A, Q103R, C127A) (ligand)
chain: B1 chain with R6K, K8E, Q103R
B9: IL-18 variant SEQ ID NO: 210 (V11I, E31A, C38A, K53A, C76A, C127A) (ligand)
chain: B1 chain with R6E, E31A, A63T
B10: IL-18 variant SEQ ID NO: 215 (V11I, E31A, D37A, C38A, K53A, C76A, C127A) (ligand)
chain: B1 chain with R6E, E31A, D37A, A63T
B11: IL-18 variant SEQ ID NO: 243 (Y1M, E6K, V11I, C38A, K53A, T63A, C76A, C127A) (ligand)
chain: B1 chain with Y1M, R6K
B12: IL-18 variant SEQ ID NO: 216 (V11I, C38A, D40A, K53A, C76A, C127A) (ligand)
chain: B1 chain with R6E, D40A, A63T
B13: IL-18 variant SEQ ID NO: 233 (E6K, V11I, C38A, I49R, K53A, T63A, C76A, C127A) (ligand)
chain: B1 chain with R6K, I49R
B14: IL-18 variant SEQ ID NO: 220 (V11I, C38A, K53A, C76A, H109A, C127A) (ligand)
chain: B1 chain with R6E, A63T, H109A
B15: IL-18 variant SEQ ID NO: 208 (V11I, C38A, K53A, D54A, C76A, C127A) (ligand)
chain: B1 chain with R6E, D54A, A63T
B16: IL-18 variant SEQ ID NO: 227 (V11I, C38A, S55T, C76A, C127A) (ligand)
chain: B1 chain with R6E, A53K, S55T, A63T
B17: IL-18 variant SEQ ID NO: 218 (V11I, C38A, K53A, C76A, C127A, D132A) (ligand)
chain: B1 chain with R6E, A63T, D132A
B18: IL-18 variant SEQ ID NO: 225 (V11I, C38A, S55H, C76A, C127A) (ligand)
chain: B1 chain with R6E, A53K, S55H, A63T
B19: IL-18 variant SEQ ID NO: 212 (V11I, D35A, C38A, K53A, C76A, C127A) (ligand)
chain: B1 chain with R6E, D35A, A63T
B20: IL-18 variant SEQ ID NO: 221 (V11I, C38A, K53A, C76A, D110A, C127A) (ligand)
chain: B1 chain with R6E, A63T, D110A
B21: IL-18 variant SEQ ID NO: 226 (V11I, C38A, S55R, C76A, C127A) (ligand)
chain: B1 chain with R6E, A53K, S55R, A63T
B22: IL-18 variant SEQ ID NO: 206 (V11I, C38A, K53A, S55A, C76A, C127A) (ligand)
chain: B1 chain with R6E, S55A, A63T
B23: IL-18 variant SEQ ID NO: 222 (K8R, V11I, C38A, C76A, Q103E, C127A) (ligand)
chain: B1 chain with R6E, K8R, A53K, A63T, Q103E
B24: IL-18 variant SEQ ID NO: 214 (V11I, D37A, C38A, K53A, C76A, C127A) (ligand)
chain: B1 chain with R6E, D37A, A63T
B25: IL-18 variant SEQ ID NO: 205 (V11I, C38A, K53A, T63A, C76A, C127A) (ligand)
chain: B1 chain with R6E
B26: IL-18 variant SEQ ID NO: 232 (E6K, V11I, C38A, I49M, K53A, T63A, C76A, C127A) (ligand)
chain: B1 chain with R6K, I49M
B27: IL-18 variant SEQ ID NO: 230 (K8L, E6K, V11I, C38A, K53A, T63A, C76A, C127A) (ligand)
chain: B1 chain with R6K, K8L
B28: IL-18 variant SEQ ID NO: 211 (V11I, T34A, C38A, K53A, C76A, C127A) (ligand)
chain: B1 chain with R6E, T34A, A63T
B29: IL-18 variant SEQ ID NO: 224 (V11I, C38A, C76A, Q103K, C127A) (ligand)
chain: B1 chain with R6E, A53K, A63T, Q103K
B30: IL-18 variant SEQ ID NO: 223 (K8E, V11I, C38A, C76A, Q103R, C127A) (ligand)
chain: B1 chain with R6E, K8E, A53K, A63T, Q103R
B31: IL-18 variant SEQ ID NO: 219 (V11I, C38A, K53A, C76A, G108A, C127A) (ligand)
chain: B1 chain with R6E, A63T, G108A
B32: IL-18 variant SEQ ID NO: 213 (V11I, S36A, C38A, K53A, C76A, C127A) (ligand)
chain: B1 chain with R6E, S36A, A63T
B33: IL-18 variant SEQ ID NO: 62 with 30 kDa PEG (E6K, C38A, K53A, C127A, C68-30kPEG) (ligand)
chain: B1 chain with R6K, I11V, A63T, A76C
modifications: 30 kDa PEG on Cys 68 (C68-30kPEG)
notes: also called 62 + PEG

Legend:
[1] = target: T1, IL-18 receptor (IL-18R) on HEK-Blue …; assay: cell-based or functional assay
[2] = target: T2, IL-18Rα/β heterodimer (Fc fused human …); assay: SPR, Fc-IL-18Rα/β captured, heterogeneous ligand fit
Procedure: The interaction of the wild type and of modified IL-18 polypeptides with human IL-18 receptor subunits are measured with Surface Plasmon Resonance (SPR) technology. Anti-human IgG antibodies are bound by amine coupling onto a CM5 chip to capture 6 µg/mL of Fc fused human IL-18Rα, […] of Fc fused human IL-18Rβ, or […] of Fc fused human IL-18BP isoform a (IL-18BPa) for 30 min before capture. In other settings, […] of alpha and beta IL-18 receptors are mixed and pre-incubated for 30 min before capture of the alpha/beta heterodimer IL-18 receptor.
The kinetic binding of the IL-18 analytes are measured with a Biacore 8K instrument in two fold serial dilutions starting at […] down to 0.98 nM. Regeneration of the surface back to amine coupled anti IgG antibody is done after every concentration of analyte. To measure the protein association to the receptors, the samples are injected with a flow rate of […] for 60 s, followed by 300 s buffer only to detect the dissociation. The used running buffer is 1×PBS with 0.05% Tween20. The relative response units (RU, Y-axis) are plotted against time (s, X-axis) and analyzed in a kinetic 1:1 binding model for the monomer receptor binding and for the binding to the IL-18BP. A kinetic heterogenous ligand fit model is applied for the alpha/beta heterodimer binding.

Binder	EC50, HEK-Blue IL18R reporter [1]	also measured
B1	0.04 nM	
B2	5.37 nM	
B3	7.73 nM	
B4	0.26 nM	
B5	0.98 nM	
B6	7.28 nM	
B7	11.7 nM	
B8	0.4 nM	
B9	6.6 nM	
B10	11.9 nM	
B11	0.02 nM	
B12	0.52 nM	
B13	0.04 nM	
B14	19.5 nM	
B15	1 nM	
B16	4.73 nM	
B17	1.95 nM	

Binder	EC50, HEK-Blue IL18R reporter [1]	also measured
B18	3.14 nM	
B19	13.1 nM	
B20	2.02 nM	
B21	1.91 nM	
B22	3.63 nM	
B23	2.01 nM	
B24	14.1 nM	
B25	0.17 nM	
B26	0.07 nM	
B27	0.29 nM	
B28	0.7 nM	
B29	1.5 nM	
B30	2.3 nM	
B31	15.6 nM	
B32	0.25 nM	
B33		Kd [2]: 14.9 nM; koff [2]: 0.000779 s⁻¹; kon [2]: 52300 M⁻¹ s⁻¹
